# Experimental data taken from the NTF2 design screens of Basanta et al. (2020).
# Experiment: protease stability score; higher = more stable; yeast display proteolysis, trypsin and chymotrypsin;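 further: log10 excess protease needed over predicted unfolded state with 0 meaning unfolded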
row,Sequence,protease stability score
1,DSERASEAARTFVDAMRTNDEKQFNELFDPNARVRIGDEKVHGMDRITDQLHNLNKKADHNEVLDYKVNGNTAVVHFQVDHNGQTRRYRIVITMHNGRVHEMQVNTK,0.458
2,DSERRQREAENFFKNLQTGNKHEFEKLFPPDVRAQVGEKEIHGREEAQKWWKNIHDRADHMQIDHFDVDGNKITFDMRMNVDGHEIRMRLTIRLENGQYRSLTAEVRDEDAERRLKS,0.672
3,DSEVLDVLTSIVKNIHNGNPDEVMKQMDPNARVQVGDDRFHGDRKQQEDVQTLLDTMEVNIHITSVDFDGDKVTVRFKVEYNVNGRPFRIEAEMQAVAKNGRIQDLKVRIDKQFLSELKS,0.858
4,DSHAENLLQQVLKALETGDQKRVMELFDPNAKVRYGDKTLHGREEIRKYVKKLKDEMQIRIEVRSVTVQGNKITADVVVRADVDGKPVEMRVRIHVEFENGKIHSLSVDMDPEQVKELEK,1.56
5,DSHAHNVADEVMRALQENDEDSLRQLLDPNVEFHIGDTTYHGREQVRHWITRLKEQMRVKFDLKDLKVQGDTVHIKLRLEQEHNGQPRQHNVVINVKIDNGRVKKISFQHTK,1.64
6,DSHEKAEKWARKLNQVWEHNDPDRAMEMVDPNVRVDIGDRRYHGREDWRKMVEHLNKRVDHMEFKFDQVDAHNGKIRITVTFTYTIDGQERTERLVFHVDNVNGRLVAQKAHDG,0.343
7,DSHLEHKAHEWVKAVNENDPDRLVQLMDKDVKIDVGDKKFSGRENYATEVKKEQDEARVEWKDVKLSADNGKLELQADVVRRHNGQPQRWKVENIYTDKNGVAKYLTNKSKP,-0.423
8,DSHLQEEVERFWKQLEHGNRQNLRELADEEVNFVYGDKTIHGREKAATHMSKRVRKIQIEWKTYSAEVHNGKLDATAEWRADHNGKPKDVKMTFYVKVHNGRIKEVNIQEEK,0.178
9,DSHQQAREMVRELQRILETNDTDKWRHMFDPNARAQYGDKEYHGRDQVTHYLQEQTQRVDSVRVNIDEVDVSGDKLRVVFTLVRVHNGEEKSDTYVFVLRFHGDHARIESFRRK,0.687
10,DSHTIAKELMKTWQDAARNNDEDKLKELIDKDASASVGDKTFHGRESFARHVQEQARRADHLEVRLESMSINGDHIHLQFVVRYNVNGKESSDRYVVIFHKVNGKFRVRQIKQR,0.721
11,DSKELARRFHTELLENLRHNDSERLRRLLDEDARVHVGDKEVHGREQFADEQTKIMEHFDRVELRIREVTIEEGRVKVLIHFDADNNGEKHTDNSEVTFDNQGDKLTNKTQHES,-0.13
12,DSKEVRKAEELAKAVRTGDPDTIVKLMDPNARLKVGDREYRGQKDVQKFLKRVLDEIRVKLDVQDIKAHNGKVKVRATVVQRKNGTPHHRTMRMWVQMNNGHVEELSVSNDS,0.401
13,DSKQRAKEFVKEFQRVLQKGDPDQAEKMADKDVRINVGDKTYHGREEMWKMAQEWQRKYDEMSITVSRIQTRPGRIVANAKLKLDNNGTTDDTHLVIVVREHNGHYRAVHIRLG,0.992
14,DSKVRRVAERFMHAIQEGNEDDVRKLADKNVQIHVGEKELRGRDQLAKDVSDRTRQIRLHIKHLSIHVQGDKVIVRFDVVETHNGKPHRYRAKAEMRVRNGRVTRYTVKHDG,0.633
15,DSNALSRAMEYLRVVEQGDPKRAKQLFDPNARFIYGDRTVHGKDRIADMLRHERDDMRLQIDDLKTTVQGDKVVVRYKAVRERNGHPETFRAEFRVEFNNGKIEQQNYQVHK,0.25
16,DSQERADDWMRDFNRAVQHGDPTQLTDLMDKDANARIGDTSVHGRHHLVTRWQQFRTDVDRVDIHIVSIEVQGDKIHIDMTFQADVNGRRKEDHIVIIAVDRNGKVKVQQIQDK,-0.337
17,DSQKERDLVEHFLRNFRTGDPDKLKTMADPNAHMRVGDKNVHGREDLSRWVQEVRDRADHIDIDTFSVSNGRATATIVMRVDGKEVRFEVVITMENGKIKSMEQQDR,0.726
18,DSRAANLFSHAWKQVETGNNHNFRKLLDPNARRKVGDQTIDGREEMTEDNKRKRKEMHRTIETMSFEDHGDKAVFYMQYVVHHNGEPREIRNRVIIKVRGDRIKEVEVRKDG,0.006

row,Sequence,protease stability score
1,DSRAQSLFHKWMDALRTGDRRKLSELADPNVSITYGDKTIHGREENMKEAHRLVNQMRVDFDIKSIENEPNRVIIRMRVEYDVNGRPFDDEVVVELRAKGDHIKEVRVRIDPRQVKELSG,0.907
2,DSRAVHLAKNFMSALKTGDHDRARDNLDKDARISIGDKVWHGMDEAVHDIKREKEEMRIEFRKVDAKDSNGKVRMDADVVFNHDGRPDKFRLDADIEVHNGRIHVLDVENSK,0.264
3,DSRDNRAATRLRQAHESGDPDQIRDNVDPNATIQVGDKSIHGMESWAREEHKKHRELKVEIKDFRQSASNGHVKATIDRVDNHNGRPQRTTVDIHIVFHNGKVKSIDVKTTK,-0.481
4,DSREAKRAETFFRLVQRGDSRKLQEYMDPNARINIGEKRIHGRENYAKEVKDRREHIRVDIKSLEASDTNGRIHVEVHFEHSHNGRPDQQTMELRITMHNGRAQEITQHETK,-0.223
5,DSREEAKRFFTKMVEIFKTGDEDEAHEMADKNARVHVGDKTVRGREQYTRKMSKEVKQVDHAEYRIQDVEVQGEHIRITFVRRIDTNGRTNEQHLVMEAEKHNGRIYIKQIHES,-0.159
6,DSRELDEFIHKFAQVIRKGNPRDAMKNVDKDARAVVGNKHINGRDQFHKWIEDLNKTIDHFEIVHVEVEGDRALMDVQVNINGKTRRIRLTAHVHNGRFKDVRVDPENERKLNQ,0.011
7,DSREQEDFRRKVETNNPDQEKKMFDENARLQVGDKTYHGREKVFDFLKTLMDQVDHVHVRDMHVKGDEYSFDIILDINGRRIHITFLARVHNGHIKSQSLRATDESVKDEIEELQG,0.404
8,DSRSNAQRVLDAINQLVHGNPQEFNKNADPNVRATYGDKEVHGREEVKKHVDSLMKKVDHVQVKNYQITGDKARVQVVLDINGRTRHVQINAHAKNGRIKHVEIQQQ,0.895
9,DSTNVEILKEYVENQRRGNEDQLRRLMDPNVHVQVGDKQLHGDRQITDEFRRQQEHLRFSIKTYDYRDQGDKVRAHIVYEQMHNGRPETVRHNMVAEIHNGNIKYLQIESDQ,-0.301
10,DSTQVRILEEMNRAIERGDPERVYQLADPNARFQIGDTQIHGMESFMKHVEETVRHMRISIRSLHADDEGDKMKVTFTFVVNRDGQPRRRVVTATAHANGDQVKYLEWRDDE,0.477
11,DTDAVKNFKEDLHAVRSGDPDRLLKMFDPNAKLQIGDKEVTGMDQYAKEVHNTRQEIRMSYELRDYKVDGDKIEADIRVQKDVNGRPYRDKVKVDIKVNNGRIKKARYQVDEDKEKQLQS,-0.126
12,DTDAVRRALKFIDAMQDGDPDKARELMDPNARVNIGDKEYHGMTSFVKDLKRLRDEIRVQYNIRDYNAQGEKIHVTVDVVFEHNGRPVDERFNVTIDIQGDKIKQVTAHRTK,1.61
13,DTDDNRKAAENILTAIQSNDPDERQKNADENVKVNVGDNRISGRENMHEFMKRVWEDVDKITIRSYTFKGDKMTADIHLNFNGQTAKLNVDVNIHNGKAQEVSMDPKADRVVRT,0.47
14,DTDDTEALRRFFDALHNGDPDKVDKNADKDVRFKVGDKEIHGREQLRRTVEQQKKEIRYEVDVKQISDHNGQVSVHAHFQENKNGKPKNVEVTAVAEAENGTLKQLEFNSDQ,-0.367
15,DTDKTARQLVRDLEKALQTGDPDKLAKLFDKDARINVGEKDYQGRERMQRNWRRDNTRIDHVSVDLKDMKIQGNKISVDMTIKFKVDGHHNSRVVVLLFDNDNGTVRAVENQQK,0.16
16,DTEARKLIEELLRAVRDGDPDQVKQNADPNARVQYGDQTFHGMDRYAEWVEEMHKQARVSIEFDSFSFTGDKVQMHAKHVVEVNGKPQRDTVVIRAVVRGDKIRNIHFRMDEQRVRDQQS,0.783
17,DTEDDHEFARKYVEVLESGDPKQWREMFDEDAKMRIGEKTFRGRDQIATWYERYRRQADHVEVKHVETRGEQFQFDFQVHVNGKHARYTLNIRVHNGKLVEVKFDPDQKKTMDK,1.75
18,DTEDLNRLANTMASAIHHNDPDKIVKMFDPNARARVGDKSYHGREDLRKMVNEWHRQADDIHIQQVQVHNGRAYINFVRNVNGVHADLTAIITIENGRAEKMTLTYRNPDDEKKVQG,0.279
